Data taken from paper PMC6377406.

Molecular target: ΔN-PINK1-GFP (UniProt Q9BXM7)
Assay: co-IP; GFP IP (μMACS Epitope Tag Protein Isolation kit) of lysates of transfected HEK293 cells; immunoblot

UniProt Q9BXM7, sequence (Q9BXM7 78-581, stated change not applied): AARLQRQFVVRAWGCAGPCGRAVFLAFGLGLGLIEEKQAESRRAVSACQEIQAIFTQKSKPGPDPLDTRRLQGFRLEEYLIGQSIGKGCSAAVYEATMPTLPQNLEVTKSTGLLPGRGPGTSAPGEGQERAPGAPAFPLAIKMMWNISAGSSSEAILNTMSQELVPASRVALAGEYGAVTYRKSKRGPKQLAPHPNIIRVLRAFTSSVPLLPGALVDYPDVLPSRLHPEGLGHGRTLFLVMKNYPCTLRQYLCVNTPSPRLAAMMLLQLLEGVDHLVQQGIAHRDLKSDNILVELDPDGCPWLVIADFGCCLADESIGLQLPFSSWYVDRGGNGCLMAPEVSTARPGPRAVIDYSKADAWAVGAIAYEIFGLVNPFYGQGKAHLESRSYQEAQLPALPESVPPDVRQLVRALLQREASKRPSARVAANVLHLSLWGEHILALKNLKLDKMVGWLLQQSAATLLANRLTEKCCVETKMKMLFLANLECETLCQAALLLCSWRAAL

A fold of VCP pulled down against OMM-PINK1-GFP of 4 fold was found for “valosin-containing protein (VCP), endogenous in HEK293 cells (from UniProt P55072 1-806) (natural protein)” in this work.
